Our source for the Km, kcat and kcat/Km values is PMC4851294 (PLoS ONE, 2016).

In this data set the test system is O=C[C@H](O)[C@H](O)COP(=O)(O)O. Nature of the data set: purified protein.

Regarding “3-deoxy-D-arabino-heptulosonate 7-phosphate synthase (MtuDAH7PS) (Mycobacterium tuberculosis H37Rv)”, the Km is 28 ± 2 µM, the kcat amounted to 4.7 ± 0.1 s⁻¹ and the kcat/Km came out at 170000 ± 20000 M⁻¹ s⁻¹.
